Experiments:
[1] = EDA activity assay: S. cerevisiae EDA extracts with saturating E. coli EDD extract (LDH coupled, NADH); assay type: biochemical; settings: for EDA activity compared (in words): EDAs expressed in S. cerevisiae, saturating E. coli EDD extract
Method: EDA genes isolated from a variety of sources were expressed in yeast and evaluated independently of EDA activity, to identify EDA activities suitable of inclusion in an engineered yeast strain. […] The activity of integrated EDAs in Thermosacc-Gold haploids, were also evaluated in this manner.
EDD extractions (adapted from Chemyan et al, Protein Science 16:2368-2377, 2007): • 1) Pellet cells in 50 ml conical tubes, 4° C., 3,000 rpm, 10 mins, discard supernatant. • 2) Resuspend in 2 ml degassed PDGH buffer (20 mM MES pH 6.5, 30 mM NaCl, 5 mM MnCl2, 0.5 mM FeCl2, 10 mM 2-mercaptoethanol, 10 mM cysteine, sparged with nitrogen gas). Move to hungate tube. • 3) Add 0.1% Triton X-100, 10 ng/ml DNase, 10 μg/ml PMSF, 10 μg/ml TAME (Na-(p-toluene sulfonyl)-L-arginine methyl ester), 100 μg/ml lysozyme. • 4) Sparge hungate tube with nitrogen gas, cap and seal. Incubate 2 hours at 37° C., swirl occasionally. • 5) Clarify by centrifugation in 2-ml tube, 4° C., 10 mins, 14,000 rpm. Keep supernatant. • 6) Treat with 150 mM pyruvate and 10 mM sodium cyanoborohydride (work in hood) to inactivate aldolase activity. Incubate 30 mins at room temperature. • 7) During incubation, pre-equilibrate PD-10 column from GE • a. Remove top cap, pour off storage buffer. • b. Cut off bottom tip, fit in 50 ml conical with adapter. • c. Pour 5 ml of 20 mM MES buffer, pH 6.5 (total of 5 times). Discard flow-through. • 8) Run sample through column, then add MES buffer to a total of 2.5 ml volume added. Discard flow-through. • 9) Run 3.5 ml 20 mM MES pH 6.5 buffer to elute protein. Discard column in appropriate waste receptacle. • 10) Perform Bradford assay (1:10 or 1:20 dilution).
• 1) Spin down in 50 ml conicals, 4° C., 3,400 rpm, 5 mins. […]
Each reaction contains 50 mM Tris-HCl, pH 7, 10 mM MgCl2, 0.15 mM NADH, 15 μg LDH, saturating amounts of EDD determined empirically (usually −100 μg), 1-50 μg EDA (depending on level of activity), and 1 mM 6-phosphogluconate. Reactions are started by the addition of 6-phosphogluconate and monitored for 5 mins at 30° C.

[2] = ZWF1 (glucose-6-phosphate dehydrogenase) kinetic assay on crude extract with NADP+ or NAD+; assay type: biochemical
Method: Strain BY4742 zwf1 (ATCC Cat. No. 4011971; Winzeler E A, et al. Science 285: 901-906, 1999. PubMed: 10436161) was used as the base strain for all ZWF1 assays. The assays were performed as follows: A 5 ml overnight of the strain expressing the ZWF1 gene was grown in SCD-ura. A 50 ml culture of the strain was then grown for about 18 hours from an initial OD600 of about 0.2 until it had reached about OD600 of about 4. The cells were centrifuged at 1046×g washed twice with 25 ml cold sterile water, and resuspended in 2 ml/g Yper Plus (Thermo Scientific) plus 1×protease inhibitors (EDTA-free). The cells were allowed to lyse at room temperature for about 30 minutes with constant rotation of the tubes. The lysate was centrifuged at 16,100×g for 10 minutes at 4° C. and the supernatants were transferred to a new 1.5 ml microcentrifuge tube. Quantification of the lysates was performed using the Coomassie-Plus kit (Thermo Scientific, San Diego, Calif.) as directed by the manufacturer.
The reaction was started with 20 mM glucose-6-phosphate and the reaction was monitored at A340. The specific activity was measured as the μmol substrate/min/mg protein.

[3] = Anti-His western blot of EDD and EDA variants expressed in S. cerevisiae (soluble/insoluble fractions); parameters: species or system Saccharomyces cerevisiae; settings: C-terminal HIS tag; total crude extract and solubilized extract
Method: Transformation of the p426GPD plasmids containing an edd or an eda variant gene into yeast strain BY4742 was accomplished using the Zymo Research frozen-EZ yeast transformation II kit according to the manufacturer's protocol. The transformed BY4742 cells were selected by growth on a synthetic dextrose medium (SD) (0.67% yeast nitrogen base-2% dextrose) containing complete amino acids minus uracil (Krackeler Scientific Inc). Plates were incubated at about 30° C. for about 48 hours. Transformant colonies for each edd and eda variant were inoculated onto 5 ml of SD minus uracil medium and cells were grown at about 30° C. and shaken at about 250 rpm for about 24 hours. Cells were harvested by centrifugation at 1000×g for about 5 minutes, after which protein crude extract was prepared with Y-PER Plus (Thermo Scientific) according to the manufacturer's instructions. Whole cell extract protein concentrations were determined using the Coomassie Plus Protein Assay (Thermo Scientific) according to the manufacturer's directions. For each edd and eda variant His-tagged construct, about 10 μg of soluble and insoluble fractions were loaded on 4-12% NuPAGE Novex Bis-Tris protein gels (Invitrogen) and proteins were analyzed by western using anti-(His)6 (SEQ ID NO: 138) mouse monoclonal antibody (Abcam) and HRP-conjugated secondary antibody (Abcam). […]

| Molecule | EDA activity compared (in words) [1] | expression and solubility in S. cerevisiae (western, FIGS. 13A and 13B) [3] | also measured |
| --- | --- | --- | --- |
| Codon-optimized EDA from P. aeruginosa: codon-optimized version of the P. aeruginosa EDA gene (protein, UniProt O68283 1-220, looked up, codon-optimized gene) 2-dehydro-3-deoxy-phosphogluco …: MHNLEQKTARIDTLCREARILPVITIDREADILPMADALAAGGLTALEITLRTAHGLTAIRRLSEERPHLRIGAGTVLDPRTFAAAEKAGASFVVTPGCTDELLRFALDSEVPLLPGVASASEIMLAYRHGYRRFKLFPAEVSGGPAALKAFSGPFPDIRFCPTGGVSLNNLADYLAVPNVMCVGGTWMLPKAVVDRGDWAQVERLSREALERFAEHRRH | slight improvement over the native sequence | – | – |
| Mutant 13: S. cerevisiae ZWF1 site-directed mutant A24G/A51D (protein, UniProt P11412 2-505, looked up, variant A24G A51D) Glucose-6-phosphate …: SEGPVKFEKNTVISVFGASGDLGKKKTFPALFGLFREGYLDPSTKIFGYDRSKLSMEEDLKSRVLPHLKKPHGEADDSKVEQFFKMVSYISGNYDTDEGFDELRTQIEKFEKSANVDVPHRLFYLALPPSVFLTVAKQIKSRVYAENGITRVIVEKPFGHDLASARELQKNLGPLFKEEELYRIDHYLGKELVKNLLVLRFGNQFLNASWNRDNIQSVQISFKERFGTEGRGGYFDSIGIIRDVMQNHLLQIMTLLTMERPVSFDPESIRDEKVKVLKAVAPIDTDDVLLGQYGKSEDGSKPAYVDDDTVDKDSKCVTFAAMTFNIENERWEGVPIMMRAGKALNESKVEIRLQYKAVASGVFKDIPNNELVIRVQPDAAVYLKFNAKTPGLSNATQVTDLNLTYASRYQDFWIPEAYEVLIRDALLGDHSNFVRDDELDISWGIFTPLLKHIERPDGPTPEIYPYGSRGPKGLKEYMQKHKYVMPEKHPYAWPVTKPEDTKDN | – | – | NAD+ usage ([2]; initial kinetic screening of S. cerevisiae ZWF1 (zwf1_sc) mutants, preliminary cofactor phenotype, NAD+ as cofactor): Yes; NADP+ usage ([2]; initial kinetic screening of S. cerevisiae ZWF1 (zwf1_sc) mutants, preliminary cofactor phenotype, NADP+ as cofactor): No; cofactor utilization (NAD+ / NADP+) ([2]; initial kinetic screening of S. cerevisiae ZWF1 mutants): enabled NAD+ utilization with concomitant loss of NADP+ utilization |
| PAO1 EDD protein: phosphogluconate dehydratase (edd) of Pseudomonas aeruginosa PAO1, SEQ ID NO: 70 (protein, listed as Pseudomonas aeruginosa) MHPRVLEVTRRIQARSAATRQRYLEMVRAAASKGPHRGTLPCGNLAHGVAACGESDKQTLRLMNQANVAIVSAYNDMLSAHQPFERFPGLIKQALHEIGSVGQFAGGVPAMCDGVTQGEPGMELSLASRDVIAMSTAIALSHNMFDAALCLGVCDKIVPGLLIGSLRFGHLPTVFVPAGPMPTGISNKEKAAVRQLFAEGKATREELLASEMASYHAPGTCTFYGTANTNQLLVEVMGLHLPGASFVNPNTPLRDELTREAARQASRLTPENGNYVPMAEIVDEKAIVNSVVALLATGGSTNHTLHLLAIAQAAGIQLTWQDMSELSHVVPTLARIYPNGQADINHFQAAGGMSFLIRQLLDGGLLHEDVQTVAGPGLRRYTREPFLEDGRLVWREGPERSLDEAILRPLDKPFSAEGGLRLMEGNLGRGVMKVSAVAPEHQVVEAPVRIFHDQASLAAAFKAGELERDLVAVVRFQGPRANGMPELHKLTPFLGVLQDRGFKVALVTDGRMSGASGKVPAAIHVSPEAIAGGPLARLRDGDRVRVDGVNGELRVLVDDAEWQARSLEPAPQDGNLGCGRELFAFMRNAMSSAEEGACSFTESLNGWR | – | expressed and soluble | – |
| E. coli EDA protein: 2-keto-3-deoxygluconate-6-phosphate aldolase (eda) isolated from E. coli genomic DNA (protein, UniProt P0A955 1-213, looked up) KHG/KDPG aldolase: MKNWKTSAESILTTGPVVPVIVVKKLEHAVPMAKALVAGGVRVLEVTLRTECAVDAIRAIAKEVPEAIVGAGTVLNPQQLAEVTEAGAQFAISPGLTEPLLKAATEGTIPLIPGISTVSELMLGMDYGLKEFKFFPAEANGGVKALQAIAGPFSQVRFCPTGGISPANYRDYLALKSVLCIGGSWLVPADALEAGDYDRITKLAREAVEGAKL | most active | expressed and soluble | EDA activity relative to EDA from P. aeruginosa ([1]; E. coli EDA slope outside the linear range, underestimated): approximately 16 fold |
